{
  "source": "patent US20040001801A1",
  "about": "(priority 2002, published 2004)",
  "conditions": "mouse, in vivo",
  "note": "Square brackets hold non-standard residues; d marks the D form. Peptide text beside a SMILES is read from it. * marks the point of attachment. Doxorubicin(3'-N) = COc1cccc2c1C(=O)c1c(O)c3c(c(O)c1C2=O)C[C@@](O)(C(=O)CO)C[C@@H]3O[C@H]1C[C@H](N*)[C@H](O)[C@H](C)O1; Nle = CCCC[C@H](N)C(=O)O",
  "data": [
    {"smiles": "CCCC[C@H](NC(=O)[C@H](CO)NC(=O)[C@H](CCCNC(=N)N)NC(=O)CNC(=O)[C@H](CO)NC(=O)CNC(C)=O)C(=O)N[C@H]1C[C@H](O[C@H]2C[C@](O)(C(=O)CO)Cc3c(O)c4c(c(O)c32)C(=O)c2c(OC)cccc2C4=O)O[C@@H](C)[C@H]1O", "note": "[Ac-Gly-Ser-Gly-Arg-Ser-nLeu-Dox] (Ac-GSGRS[Nle]-{Doxorubicin(3'-N)})", "values": [
      {"measurement": "levels of dox and nor-leu dox in the plasma compared with the tumor", "result": "lower levels"},
      {"measurement": "parent conjugate in the tumor", "result": "does not get into the tumor"},
      {"measurement": "toxins (norleu dox and dox) concentrations in the tumor", "result": "μM concentrations"}
    ]}
  ]
}
